Laboratory results published in patent US20250206841A1 (ADEPT THERAPEUTICS, published 2025).

B1: 5D4 (antibody, V domains shown)
VH: QQLEESGGGLVKPEGSLTLTCKGSGFDFSGTYWMWWVRQAPGKGLEWIACIYVGSGSSTYYASWAKGRFTISSTSSTAVTLQATSLTAADTATYFCARGATNNVFMNYFNLWGPGTLVTVSS
VL: FEMTQTPSSVSEPVGGTVTIKCQASEDISSNLGWYQQKPGQPPKLLIYGASTLASGVPSRFKGSGSGTEFTLTISDLECADAATYYCQTSYYIDDGVNGFGGGTEVVVK
notes: Rabbit-derived clone; LEM construct: VH + rabbit IgG CH1 + human IgG1 CH2-CH3
B2: 5D4-1 (antibody, V domains shown)
VH: QQLEESGGGLVKPEGSLTLTCKGSGFDFSGTYWMWWVRQAPGKGLEWIAPIYVGSGSSTYYASWAKGRFTISSTSSTAVTLQATSLTAADTATYFCARGATNNVFMNYFNLWGPGTLVTVSS
VL: FEMTQTPSSVSEPVGGTVTIKCQASEDISSNLGWYQQKPGQPPKLLIYGASTLASGVPSRFKGSGSGTEFTLTISDLEPADAATYYCQTSYYIDDGVNGFGGGTEVVVK
B3: 10A9 (antibody, V domains shown)
VH: QSLEESGGDLVQPGASLTLTCKASGFDLNNYAMLWVRQAPGKGLEWIGCIYISGGTTYFASWATGRFAISKTSSTTVTLQMTSLTAADTATYFCARDDGTTSYYLNLWGPGTLVTVSS
VL: YDMTQTPASVSAAVGGTVTIKCQASEDIYSLLAWYQQKPGQPPKLLIYGASNLESGVPSRFKGSGSGTEYTLTISDLECDDAATYYCQQAYTIGNIDNAFGGGTEVVVK
notes: as for B1
B4: 10A9-2 (antibody, V domains shown)
VH: QSLEESGGDLVQPGASLTLTCKASGFDLNNYAMLWVRQAPGKGLEWIGSIYISGGTTYFASWATGRFAISKTSSTTVTLQMTSLTAADTATYFCARDDGTTSYYLNLWGPGTLVTVSS
VL: YDMTQTPASVSAAVGGTVTIKCQASEDIYSLLAWYQQKPGQPPKLLIYGASNLESGVPSRFKGSGSGTEYTLTISDLEADDAATYYCQQAYTIGNIDNAFGGGTEVVVK
B5: 74F11/15F5 (antibody, human IgG1, V domains shown)
VH: QEQLKESGGGLVQPGGSLKLSCKASGFDFNNYGMSWVRQAPGKGLEWIAYIYPAFHNTYYANWVNGRFTISSDNAQNTVDLQLNSLTAADTATYFCARDAGSTDYNFNLWGPGTLVTVSS
VL: DVVMTQTPASVEAAVGGTVTIKCQASEDIERYLAWYQQKPGQPPKLLIYEASKLPSGVSSRFSGSGYGTEFTLTISGVECADAATYYCQQALTIGYVDNPFGGGSEVVVK
notes: LEM construct: VH + rabbit IgG CH1 + human IgG1 CH2-CH3

Experiments:
human Trop-2-His protein = molecular target: T1, human Trop-2-His protein (human, UniProt P09758 27-274); test: BLI (Gator Plus), purified Ab on HFC probe
T1 construct: extracellular domain; Assay paragraphs say only 'Trop-2-His'; also called hTrop-2; Kactus Cat #TRP-HM121; not shown: His tag
T1 sequence (looked up): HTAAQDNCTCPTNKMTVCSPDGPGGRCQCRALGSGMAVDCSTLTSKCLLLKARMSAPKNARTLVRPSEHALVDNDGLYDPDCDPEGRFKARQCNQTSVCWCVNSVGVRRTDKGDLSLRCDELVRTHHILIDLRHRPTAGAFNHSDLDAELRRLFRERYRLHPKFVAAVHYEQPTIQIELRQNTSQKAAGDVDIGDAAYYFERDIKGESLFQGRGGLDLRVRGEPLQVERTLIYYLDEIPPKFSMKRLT
Procedure: The affinity of the binding of the exemplary anti-Trop-2 antibodies of the present disclosure were determined. Assay was performed using Gator Plus according to the protocol recommended by Gator Bio Inc.. Briefly, human Trop-2-His (Kactus) was 1:4 fold serially diluted starting at 1 μg/ml. After three times of regeneration and neutralization of HFC probe, 1 μg/ml of antibody to be tested in Q buffer was immobilized onto HFC probe. […] The association and dissociation of human Trop-2-His antigen from antibody was measured on BLI machine Gator Plus. Affinity was calculated using Gator Bio analysis software. Blank control was used for reference subtraction. Sacituzumab govitecan was used as positive control.

[1] = molecular target: T2, human Trop-2 expressed on cell surface (human, UniProt P09758 27-323); test: cell-based or functional assay
T2 sequence (looked up): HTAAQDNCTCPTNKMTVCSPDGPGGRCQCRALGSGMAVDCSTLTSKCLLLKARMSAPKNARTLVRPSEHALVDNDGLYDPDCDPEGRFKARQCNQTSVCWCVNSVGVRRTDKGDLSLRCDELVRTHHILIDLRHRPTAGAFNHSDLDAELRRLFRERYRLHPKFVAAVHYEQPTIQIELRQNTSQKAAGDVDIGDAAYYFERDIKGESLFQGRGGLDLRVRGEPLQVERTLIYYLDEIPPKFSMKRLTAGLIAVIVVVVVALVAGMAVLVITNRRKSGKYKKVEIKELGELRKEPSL

[2] = molecular target: T2, human Trop-2 expressed on cell surface; test: flow cytometry, MDA-MB-231-GFP cells
Procedure: Cells were then resuspended in FACS buffer (1×DPBS/1% FBS) at 10⁶/ml concentration. One hundred microliter (100 μl) of cells were aliquoted into a single well in 96 well plates. The antibodies to be tested were serially diluted at 1:3 fold starting at 15 μg/mL and were then added into each well. The antibodies were mixed with cells and the mixtures were incubated on ice for 1 hour. After washing with FACS buffer, one hundred microliter (100 μl) of 1:400 diluted PE-conjugated anti-human Fc secondary antibody (Jackson Immuno Research) was added into each well and incubated for 30 minutes on ice. After washing with FACS buffer, stained cells were resuspended at diluted 7-ADD (Biolegend, used at 1:100 dilution) and analyzed on Guava 11HT or 5HT (Luminex). Data was analyzed using Flowjo software. EC₅₀ values were calculated using GraphPad Prism. Sacitnzurnab govitecan was used as positive control. Anti-HEL.hIgG1 was used as isotype negative control. Similar assay was performed using MCF-7 cells (known to express human Trop-2).

mouse Trop-2 = molecular target: T3, mouse Trop-2 (mouse, UniProt Q8BGV3 25-270, limits assumed); test: ELISA, similar to Table 24
T3 construct: also called Kactus Cat #TRP-MM121
T3 sequence (looked up): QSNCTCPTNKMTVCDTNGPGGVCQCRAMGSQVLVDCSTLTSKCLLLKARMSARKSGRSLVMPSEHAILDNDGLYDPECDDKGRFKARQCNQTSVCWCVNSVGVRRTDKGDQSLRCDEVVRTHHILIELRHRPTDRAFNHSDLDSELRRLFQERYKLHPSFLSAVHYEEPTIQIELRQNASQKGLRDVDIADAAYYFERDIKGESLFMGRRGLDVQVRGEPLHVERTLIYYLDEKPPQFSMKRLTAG
Procedure: (§1) Purified antibodies were tested by ELISA to confirm their binding and affinity against human and cynomolgus Trop-2-His protein. Briefly, 96-well Maxisorp plates (Nunc) were coated with 100 μl/well of 0.5 μg/ml human (Kactus Cat #TRP-HM121, or Sino Biological, Cat #10428-HO8H) or cynomolgus Trop-2 protein (Kactus Cat #TRP-CM121, or Sino Biological, Cat #90893-CO8H) diluted in 1×PBS (GIBCO) overnight at 4° C. Plates were washed four times with 300 μl/well washing buffer (1×PBST, diluted from 20×PBST (Thermo Scientific) with distilled water)) and then blocked with 300 μl/well of blocking buffer (1×PBST/3% BSA (BSA, Sigma)) for 2 hours at RT on plate shaker at 100 rpm. Plates were washed and added with 100 μl/well of testing antibodies, which were serial diluted with assay buffer (PBST/1% BSA). The antibodies were incubated at room temperature for 2 hours on plate shaker at 100 rpm. Plates were washed. One hundred microliters (100 μl) of 1:10,000 diluted horseradish peroxidase (HRP) conjugated anti-hIgG antibody (Jackson Immuno Research) was added into each well and incubated at room temperature for 1 hour on plate shaker at 100 rpm. Plates were washed and added with 100 μl/well TMB substrate for color development in dark at room temperature for up to 10 minutes. After addition of 50 μl/well of stop solution (1N H₂SO₄), plates were read at 450 nm on a plate reader (SpectraMax M5). EC₅₀ values were calculated using Graphpad Prism. Sacituzumab govitecan, was used as positive control. Anti-HEL.hIgG1 was used as isotype control.
(§2) Similar assays were performed to test whether the exemplary antibodies of the present disclosure bind to human Trop-1 (EpCAM) or mouse Trop-2 (Kactus, Cat #TRP-MM121) or rat Trop-2 (kactus, Cat #TRP_RM121). No binding of the exemplary antibodies of the present disclosure to human Trop-1 (EpCAM) or mouse or rat Trop-2 has been detected.

rat Trop-2 = molecular target: T4, rat Trop-2 (rat, UniProt Q6P9Z6 25-270, limits assumed); test: ELISA, similar to Table 24
T4 sequence (looked up): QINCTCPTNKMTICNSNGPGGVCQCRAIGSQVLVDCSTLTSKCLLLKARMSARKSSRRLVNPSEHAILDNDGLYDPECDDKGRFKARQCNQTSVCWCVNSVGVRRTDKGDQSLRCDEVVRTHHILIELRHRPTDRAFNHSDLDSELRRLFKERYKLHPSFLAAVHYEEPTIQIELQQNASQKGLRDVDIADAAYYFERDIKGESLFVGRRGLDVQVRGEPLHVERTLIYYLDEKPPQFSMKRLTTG
Procedure: as §1, §2

| Binder | Kd (human Trop-2-His protein) | koff (human Trop-2-His protein) | kon (human Trop-2-His protein) | EC50 of ADCC (NFAT-CD16 reporter), MCF-7 [1] | EC50 of ADCC (NFAT-CD16 reporter), MDA-MB-231 [1] | EC50 [2] | binding result (mouse Trop-2) | binding result (rat Trop-2) |
| --- | --- | --- | --- | --- | --- | --- | --- | --- |
| B1 | 0.03 nM | 1.3e-05 s⁻¹ | 522000 M⁻¹ s⁻¹ | 0.57 nM | 0.07 nM | 0.01 nM | no binding | no binding |
| B2 | 0.1 nM | 5.1e-05 s⁻¹ | 489000 M⁻¹ s⁻¹ | 0.61 nM | 0.11 nM | 0.01 nM | no binding | no binding |
| B3 | 0.18 nM | 8.2e-05 s⁻¹ | 448000 M⁻¹ s⁻¹ | 0.32 nM | 0.06 nM | 0.04 nM | no binding | no binding |
| B4 | 2.66 nM | 0.00089 s⁻¹ | 335000 M⁻¹ s⁻¹ | 0.28 nM | 0.07 nM | 0.04 nM | no binding | no binding |
| B5 | 0.01 nM | 9e-06 s⁻¹ | 707000 M⁻¹ s⁻¹ | 0.27 nM | 0.09 nM | 0.02 nM | no binding | no binding |
